{"source": "paper PMC7684302", "about": "“A novel Schmallenberg virus subunit vaccine candidate protects IFNAR^-/- mice against virulent SBV challenge” (Scientific Reports, 2020)", "proteins": {"B1": {"name": "Schmallenberg virus nucleoprotein (natural protein)", "chain": "MSSQFIFEDVPQRNAATFNPEVGYVAFIGKYGQQLNFGVARVFFLNQKKAKMVLHKTAQPSVDLTFGGVKFTVVNNHFPQYVSNPVPDNAITLHRMSGYLARWIADTCKASVLKLAEASAQIVMPLAEVKGCTWADGYTMYLGFAPGAEMFLDAFDFYPLVIEMHRVLKDNMDVNFMKKVLRQRYGTMTAEEWMTQKITEIKAAFNSVGQLAWAKSGFSPAARTFLQQFGINI", "notes": "Nucleoprotein (N) of Schmallenberg virus, encoded on the S segment; cDNA ligated through AgeI/XhoI into pET-28M-SUMO3 in place of GFP; also called SBV-N; SBV N; source: E. coli BL21, purified (Ni-NTA, SEC)"}}, "biological_target": "the molecule itself", "test": "SEC; HiLoad 16/60 Superdex 200 pg column in 1X PBS, after Ni-NTA", "data": [{"protein": "B1", "values": [{"measurement": "binding result", "result": "binds"}]}]}
